From US20170173114A1, “METHODS AND COMPOSITIONS FOR INDUCTION OF UCP1 EXPRESSION” (Joslin Diabetes Center, Inc., priority 2014, published 2017)
Entries after “also recorded” stand apart in the source; their conditions may differ.

Assays:
UCP1 [1] = test: UCP1 mRNA expression (Q-RT-PCR) in WT-1 brown preadipocytes; format: cell-based, murine
Protocol: Total RNA was isolated with QIAzol lysis reagent (Qiagen, Valencia, Calif.) and purified by RNeasy Mini columns (Qiagen) following the manufacture's instructions. cDNA was prepared from total RNA using the Advantage RT-PCR kit (BD Biosciences, Palo Alto, Calif.) according to manufacturer's instructions. Diluted cDNA was used in a PCR reaction with SYBR Green Master Mix (Applied Biosystems, Foster City, Calif.) and primers specifically designed for detection of the gene of interest. PCR reactions were run in duplicate for each sample and quantitated in the ABI Sequence Detection System (Applied Biosystems). Data were expressed as arbitrary units after normalization to levels of expression of internal controls for each sample. Sequences of primers for specific genes are each obtained from the published literature or designed using publically available gene sequence databases. Unless otherwise indicated, gene expression data described in the examples below was obtained using QPCR.
The effect of FGF6 on differentiation of WT-1 murine brown preadipocytes was also examined. WT-1 cells can be induced to undergo brown adipocyte differentiation, characterized by lipid accumulation and expression of adipogenic and brown fat markers, as described above (Klein et al. (1999) J Biol Chem 274:34795; Tseng et al. (2005) Nat Cell Biol 7:601). WT-1 cells were treated with FGF6 in growth media (DMEM+10% FBS), a vehicle control (“control” or “C” referred to in FIGS. 3A-D), or induction media (“induction” or “I” referred to in FIGS. 3A-D) as described above for seven days. Following the treatment, cells were examined for the color of the culture media in combination with oil Red O staining, expression of adipogenic markers, expression of brown fat markers, immunofluorescent staining of cells with UCP1 and DPAI, and Western blot analysis to determine the presence of UCP1 and β-tubulin. The results are described in FIGS. 3A to 3D.
UCP1 mRNA expression in brown adipocyte cells was determined at FGF6 concentrations ranging from 0 to 300 ng/ml in the absence of induction cocktail.
In order to determine the length of time necessary to induce UCP1 expression upon exposure to of cells to FGF6, an experiment was performed whereby FGF6 was administered to brown preadipocytes at a concentration of 200 ng/ml and UCP1 expression was determined. FGF21 and a control were also used in the time course experiment. FGF21, a member of the endocrine FGF ligands that has been implicated in the browning of white fat (Fisher F. M. et al., Genes Dev. 26:271-281, 2012). […] FGF6 could acutely induce a significant increase of UCP1 expression as early as 4 hours after a 200 ng/ml dose, as described in FIG. 4B. At 24 hours, the fold-induction of UCP1 mRNA by FGF6 reached 700-fold higher than the untreated cells, as described in FIG. 4B.
To assess FGF6's role in the regulation of mitochondrial activity, FGF6 was stably expressed in WT-1 brown preadipocytes and 3T3-F442A white preadipocytes. Stable cells were generated by viral infection followed by drug selection.
FGF2, FGF6 and FGF9 were used at a dosage of 50 ng/mL, 100 ng/mL, 200 ng/mL or 300 ng/mL. FGF21 was used at the dosage of 50 ng/ml and 500 ng/mL. The concentration of BMP7 was 3.3 nM. RNA was isolated and UCP1 and PPARγ expression levels were evaluated by quantitative reverse transcription polymerase chain reaction (Q-RT-PCR) analysis after 24 hours (i.e., 1 day) (FIG. 14A), 2 days (FIG. 14B), 5 days (FIG. 14C) and 7 days (FIG. 14D) of treatment. All experiments were performed triplicate and the data are presented as mean+/−SEM.
FGF2, FGF6 and FGF9 were used at a dosage of 200 ng/mL. FGF21 was used at a dosage of 500 ng/mL. The concentration of BMP7 was 3.3 nM. mRNA was isolated and UCP1 and PPARγ expression levels were evaluated by quantitative reverse transcription polymerase chain reaction (Q-RT-PCR) analysis after 24 hours (i.e., 1 day), 2 days, 5 days and 7 days of treatment (FIG. 15). […]

UCP1 [2] = test: UCP1 mRNA expression in SVF cells from interscapular brown adipose tissue (BAT-SVF); format: cell-based, C57BL/6 mice; conditions: growth media, 3 days; vs control
Protocol: (§1) Eight 6-week old C57BL/6 male mice were sacrificed. Interscapular BAT and axillary subcutaneous WAT were removed, minced and digested with 1 mg/ml collagenase for 45 minutes at 37° C. in DMEM/F12 media, containing 1% BSA and antibiotics. Digested tissues were filtered through sterile 150 μm nylon mesh and centrifuged at 250×g for 5 minutes. The floating fractions consisting of adipocytes were discarded and the pellets representing the SVF were then resuspended in erythrocyte lysis buffer (154 mM NH4Cl, 10 mM KHCO3, 0.1 mM EDTA) for 10 minutes to remove red blood cells. The cells were further centrifuged at 500×g for 5 minutes, plated at 8×10^5 cells/well of a 24-well plate and grown at 37° C. in DMEM/F12 supplemented with 10% FBS at 37° C.
(§2) To determine if FGF6 treatment of primary adipose progenitors could also increase UCP1 expression as observed in Example 1, stromo-vascular fraction (SVF) cells, which comprise adipocyte progenitors, were isolated from interscapular brown adipose tissue (BAT-SVF) and subcutaneous white adipose tissue (SQ-SVF). SVF cells were subsequently treated with FGF6 or FGF21 in growth media (DMEM+10% FBS) for 3 days, followed by determination of UCP1 expression. As described in FIGS. 9A and 9B, FGF21 treatment had little effect on UCP1 mRNA expression in either type of SVF cells, as compared to the control. […]

UCP1 [3] = test: UCP1 mRNA expression in SVF cells from subcutaneous white adipose tissue (SQ-SVF); format: cell-based, C57BL/6 mice; conditions: growth media, 3 days; vs control
Protocol: as §1, §2

UCP1 [4] = test: UCP1 mRNA expression in C2C12 myogenic progenitors; format: cell-based; conditions: three days
WT-1 brown preadipocytes = test: 2-deoxy-[3H]glucose uptake in WT-1 brown preadipocytes; format: cell-based, murine; conditions: FGF6 overexpressing vs control and EGF
Protocol: (§3) The following glucose uptake assay was used to determine whether FGF6 could impact cellular glucose uptake. Specifically, glucose uptake was monitored in WT-1 brown preadipocytes and 3T3-F442A white preadipocytes in the presence or absence of FGF6. After serum starvation in DMEM/H medium containing 1% of BSA for 2-3 h, cells were washed with HEPES buffer and then incubated with or without 100 nM insulin for 30 min in DMEM/H medium containing 1% of BSA. Glucose transport was determined by the addition of 2-deoxy-[3H]glucose (0.1 mM, 0.5 μCi/mL; PerkinElmer Life and Analytical Science, Waltham, Mass.). After 5 minutes of incubation, the reaction was stopped by ice-cold PBS and cells were washed twice with ice-cold PBS. Cells were then lysed in 0.1% SDS, and glucose uptake was assessed in 4 mL of scintillant using Beckman LS6500 scintillation counter (Beckman Coulter, Indianapolis Ind.). Nonspecific 2-deoxy-[3H]glucose uptake was measured in the presence of cytochalasin B (20 μM) and was subtracted from the total uptake to get specific glucose uptake. Results were expressed as the mean±s.e.m. of the indicated number of experiments. The protein content was determined by the Bradford method.
The role of PGs in regulating mitochondrial function and cellular glucose uptake was also assessed. […]

[5] = tested on: 3T3-F442A white preadipocytes; test: 2-deoxy-[3H]glucose uptake in 3T3-F442A white preadipocytes; format: cell-based; conditions: FGF6 overexpressing vs control and EGF
Protocol: as §3

[6] = FGF21 50 and 500 ng/mL, BMP7 3.3 nM, with insulin and T3

Molecule | UCP1 expression level, time course (UCP1 [1]; FGF2, FGF6, FGF9 200 ng/mL, FGF21 500 ng/mL, with insulin and T3, 1, 2, 5, 7 days) | UCP1 expression level at day 7 (UCP1 [1]; [6]) | UCP1 expression level at days 1, 2 and 5 (UCP1 [1]; [6]) | effect on UCP1 expression in brown preadipocytes cultured in growth media (UCP1 [1]; data not shown) | effect on UCP1 mRNA expression in BAT-SVF (UCP1 [2]) | effect on UCP1 mRNA expression in SQ-SVF (UCP1 [3]) | UCP1 mRNA expression in C2C12 myogenic progenitors (UCP1 [4]) | glucose uptake level in WT-1 (brown) preadipocytes (WT-1 brown preadipocytes) | glucose uptake level in F442A (white) preadipocytes [5]
FGF21: fibroblast growth factor 21, member of the endocrine FGF ligands (protein, listed as Homo sapiens) MDSDETGFEHSGLWVSVLAGLLLGACQAHPIPDSSPLLQFGGQVRQRYLYTDDAQQTEAHLEIREDGTVGGAADQSPESLLQLKALKPGVIQILGVKTSRFLCQRPDGALYGSLHFDPEACSFRELLLEDGYNVYQSEAHGLPLHLPGNKSPHRDPAPRGPARFLPLPGLPPALPEPPGILAPQPPDVGSSDPLSMVGPSQGRSPSYAS | did not express detectable amounts of UCP1 | only minimal amounts | did not express detectable amounts of UCP1 | marginal effect | little effect | little effect | neither FGF6 nor FGF21 induced UCP1 mRNA expression; also recorded: no induction of UCP1 |  | 
EGF: control treatment in glucose uptake assay (protein, UniProt P01133 23-1207, looked up, Pro-epidermal growth factor) Pro-epidermal growth factor: PQHWSCPEGTLAGNGNSTCVGPAPFLIFSHGNSIFRIDTEGTNYEQLVVDAGVSVIMDFHYNEKRIYWVDLERQLLQRVFLNGSRQERVCNIEKNVSGMAINWINEEVIWSNQQEGIITVTDMKGNNSHILLSALKYPANVAVDPVERFIFWSSEVAGSLYRADLDGVGVKALLETSEKITAVSLDVLDKRLFWIQYNREGSNSLICSCDYDGGSVHISKHPTQHNLFAMSLFGDRIFYSTWKMKTIWIANKHTGKDMVRINLHSSFVPLGELKVVHPLAQPKAEDDTWEPEQKLCKLRKGNCSSTVCGQDLQSHLCMCAEGYALSRDRKYCEDVNECAFWNHGCTLGCKNTPGSYYCTCPVGFVLLPDGKRCHQLVSCPRNVSECSHDCVLTSEGPLCFCPEGSVLERDGKTCSGCSSPDNGGCSQLCVPLSPVSWECDCFPGYDLQLDEKSCAASGPQPFLLFANSQDIRHMHFDGTDYGTLLSQQMGMVYALDHDPVENKIYFAHTALKWIERANMDGSQRERLIEEGVDVPEGLAVDWIGRRFYWTDRGKSLIGRSDLNGKRSKIITKENISQPRGIAVHPMAKRLFWTDTGINPRIESSSLQGLGRLVIASSDLIWPSGITIDFLTDKLYWCDAKQSVIEMANLDGSKRRRLTQNDVGHPFAVAVFEDYVWFSDWAMPSVMRVNKRTGKDRVRLQGSMLKPSSLVVVHPLAKPGADPCLYQNGGCEHICKKRLGTAWCSCREGFMKASDGKTCLALDGHQLLAGGEVDLKNQVTPLDILSKTRVSEDNITESQHMLVAEIMVSDQDDCAPVGCSMYARCISEGEDATCQCLKGFAGDGKLCSDIDECEMGVPVCPPASSKCINTEGGYVCRCSEGYQGDGIHCLDIDECQLGEHSCGENASCTNTEGGYTCMCAGRLSEPGLICPDSTPPPHLREDDHHYSVRNSDSECPLSHDGYCLHDGVCMYIEALDKYACNCVVGYIGERCQYRDLKWWELRHAGHGQQQKVIVVAVCVVVLVMLLLLSLWGAHYYRTQKLLSKNPKNPYEESSRDVRSRRPADTEDGMSSCPQPWFVVIKEHQDLKNGGQPVAGEDGQAADGSMQPTSWRQEPQLCGMGTEQGCWIPVSSDKGSCPQVMERSFHMPSYGTQTLEGGVEKPHSLLSANPLWQQRALDPPHQMELTQ |  |  |  |  |  |  |  | no substantial effect | no substantial effect
